Experiment [1] has as its target T1, recombinant Cad-11 EC1 human IgG1 fusion protein (R&D Systems Cat. No. 1790-CA-050) (human, UniProt P55287 54-617, limits assumed).
T1 construct: bought; also called recombinant human Cad-11 EC1; recombinant human Cad-11 fusion protein; not shown: human IgG1 part
T1 sequence: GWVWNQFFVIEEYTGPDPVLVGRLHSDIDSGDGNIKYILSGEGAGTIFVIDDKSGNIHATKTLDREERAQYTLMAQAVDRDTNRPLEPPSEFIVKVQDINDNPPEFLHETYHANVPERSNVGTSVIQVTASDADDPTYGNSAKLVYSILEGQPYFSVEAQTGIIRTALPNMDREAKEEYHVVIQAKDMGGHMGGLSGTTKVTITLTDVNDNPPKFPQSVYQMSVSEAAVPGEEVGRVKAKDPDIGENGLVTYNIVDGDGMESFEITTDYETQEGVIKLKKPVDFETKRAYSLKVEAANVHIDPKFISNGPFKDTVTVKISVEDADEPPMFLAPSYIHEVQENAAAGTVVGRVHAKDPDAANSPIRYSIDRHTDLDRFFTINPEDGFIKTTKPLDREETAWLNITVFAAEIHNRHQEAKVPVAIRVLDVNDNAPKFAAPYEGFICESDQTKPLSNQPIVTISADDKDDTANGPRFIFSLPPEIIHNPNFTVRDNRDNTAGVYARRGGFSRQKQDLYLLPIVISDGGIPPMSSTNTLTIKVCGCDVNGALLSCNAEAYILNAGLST
Briefly: competition ELISA against biotinylated SYN0012/H1M1 (competitor) on coated fusion protein; text says values are normalised to the IC50 of SYN0012. Here is the method: (§1) The binding of the purified humanized composite variant antibodies (SDP011 to SDP151) to a recombinant Cad-11 EC1 human IgG1 fusion protein was assessed in a competition binding ELISA. A dilution series from 5 μg/ml to 0.0022 μg/ml of the humanized or control (SYN0012/H1M1) antibodies was premixed with a constant concentration of biotinylated murine anti-Cad-11 antibody, SYN0012/H1M1 (0.1 μg/ml, final concentration), before incubating for 1 hour at room temperature on a NUNC-IIMMUNO™ MAXISORP™ 96 well flat bottom microtitre plate (Fisher Cat. No. DIS-971-030J) pre-coated with 0.25 μg/ml recombinant human Cad-11 EC1 (R&D Systems Cat. No. 1790-CA-050) diluted in PBS. The binding of the biotinylated mAb was detected with streptavidin-HRP (Sigma Cat. No. 55512) and tetramethylbenzidine (TMB) substrate (Invitrogen Cat. No. 00-2023).
(§2) All of the humanized anti-Cad-11 antibodies efficiently competed with SYN0012 for binding to the Cad-11 fusion protein (FIGS. 38A to C). […] The curves were used to calculate IC50 values for each antibody and these were normalized to the IC50 of SYN0012, which was included on each ELISA plate so that comparisons between plates could be made (Table 3). The expression levels of each cell line and the calculated isoelectric point (pI) of each antibody are also shown (Table 3).
The relative IC50 was calculated by dividing the value for the test antibody by that of SYN0012. Antibody expression levels given are for static cultures in T flasks. PI are calculated.
On the technique in general: In an ELISA, binding on a coated surface is turned into a signal by an enzyme label.

Experiment [2] has as its target T1, recombinant Cad-11 EC1 human IgG1 …. Briefly: competition ELISA on coated recombinant human Cad-11 EC1 fusion protein against biotinylated SYN0012 (0.1 µg/ml). As for the experimental part:
as §1, §2

For experiment [3] the target is unchanged. Briefly: competition ELISA: antibody dilution series premixed with 0.1 µg/ml biotinylated SYN0012/H1M1, plate coated with recombinant human Cad-11 EC1 fusion protein, streptavidin-HRP, OD450. Here is the method: as §1, §2

This note sets out measurements from US20150132305A1 (ADHERON THERAPEUTICS, published 2015).

B1: SDP081 humanized anti-Cad-11 EC1 antibody (Vκ2/VH3) (antibody, IgG4, V domains shown)
VH: EVQLVQSGAEVKKPGASVKISCKASGYSFTGYFMNWVRQAPGQGLEWIGRINPYTGDTFYNQKFKGRATLTVDKSTSTAYMELSSLRSEDTAVYYCGRLGSRYWYFDVWGQGTTVTVSS
VL: DVLMTQTPLSSPVTLGQPASISCRSSQSIIHSNGNTYLEWYLQKPGQSPQLLIYKVSNRFSGVPDRFSGSGSGTDFTLKISRVEAEDVGVYYCFQGSHVPWTFGQGTKLEIK
notes: humanized IgG4 (S241P), kappa
For the molecule B1, the IC50 (as a rule, the concentration that inhibits the measured activity by half) in experiment [1] came to 0.42 µg/mL.

B2: SDP091 humanized anti-Cad-11 EC1 antibody (Vκ2/VH4) (antibody, IgG4, V domains shown)
VH: EVQLVQSGAEVKKPGASVKVSCKASGYSFTGYFMNWVRQAPGQGLEWIGRINPYTGDTFYNQKFKGRATITVDKSTSTAYMELSSLRSEDTAVYYCGRLGSRYWYFDVWGQGTTVTVSS
VL: DVLMTQTPLSSPVTLGQPASISCRSSQSIIHSNGNTYLEWYLQKPGQSPQLLIYKVSNRFSGVPDRFSGSGSGTDFTLKISRVEAEDVGVYYCFQGSHVPWTFGQGTKLEIK
notes: humanized IgG4 (S241P), kappa
Turning to B2, the IC50 in experiment [1] stood at 0.57 µg/mL.

B3: SDP011 humanized anti-Cad-11 EC1 antibody (Vκ1/VH1) (antibody, IgG4, V domains shown)
VH: EVQLVQSGPELKKPGASVKISCKASGYSFTGYFMNWVKQAHGQGLEWIGRINPYTGDTFYNQKFKGRATLTVDKSSSTAYMELVSLSSEDSAVYYCGRLGSRYWYFDVWGQGTTVTVSS
VL: DVLMTQTPLSSPVTLGQPASISCRSSQSIIHSNGNTYLEWYLQKPGQSPQLLIYKVSNRFSGVPDRFTGSGSGTDFTLKISRVEAEDVGVYYCFQGSHVPWTFGQGTKLEIK
notes: humanized IgG4 (S241P), kappa
With B3, in experiment [2], the “IC50 (read off the curve)” value is approximately 0.2 µg/mL. In addition, the IC50 in experiment [1] was determined as 0.91 µg/mL.

B4: SDP041 humanized anti-Cad-11 EC1 antibody (Vκ1/VH4) (antibody, IgG4, V domains shown)
VH: EVQLVQSGAEVKKPGASVKVSCKASGYSFTGYFMNWVRQAPGQGLEWIGRINPYTGDTFYNQKFKGRATITVDKSTSTAYMELSSLRSEDTAVYYCGRLGSRYWYFDVWGQGTTVTVSS
VL: DVLMTQTPLSSPVTLGQPASISCRSSQSIIHSNGNTYLEWYLQKPGQSPQLLIYKVSNRFSGVPDRFTGSGSGTDFTLKISRVEAEDVGVYYCFQGSHVPWTFGQGTKLEIK
notes: humanized IgG4 (S241P), kappa
Take B4: the “IC50 (read off the curve)” value in experiment [2] is approximately 0.1 µg/mL. The IC50 in experiment [1] worked out at 0.65 µg/mL.

B5: SDP031 humanized anti-Cad-11 EC1 antibody (Vκ1/VH3) (antibody, IgG4, V domains shown)
VH: EVQLVQSGAEVKKPGASVKISCKASGYSFTGYFMNWVRQAPGQGLEWIGRINPYTGDTFYNQKFKGRATLTVDKSTSTAYMELSSLRSEDTAVYYCGRLGSRYWYFDVWGQGTTVTVSS
VL: DVLMTQTPLSSPVTLGQPASISCRSSQSIIHSNGNTYLEWYLQKPGQSPQLLIYKVSNRFSGVPDRFTGSGSGTDFTLKISRVEAEDVGVYYCFQGSHVPWTFGQGTKLEIK
notes: humanized IgG4 (S241P), kappa
On to B5, for which the “IC50 (read off the curve)” value in experiment [2] was approximately 0.2 µg/mL. The IC50 in experiment [1] amounted to 0.84 µg/mL.

B6: SDP151 humanized anti-Cad-11 EC1 antibody (Vκ3/VH5) (antibody, IgG4, V domains shown)
VH: EVQLVQSGAEVKKPGASVKVSCKASGYSFTGYFMNWVRQAPGQGLEWIGRINPYTGDTFYNQKFKGRVTITVDKSTSTAYMELSSLRSEDTAVYYCGRLGSRYWYFDVWGQGTTVTVSS
VL: DVVMTQTPLSSPVTLGQPASISCRSSQSIIHSNGNTYLEWYLQKPGQSPQLLIYKVSNRFSGVPDRFSGSGSGTDFTLKISRVEAEDVGVYYCFQGSHVPWTFGQGTKLEIK
notes: humanized IgG4 (S241P), kappa
B6: in experiment [3], the “IC50 (read off the curve)” value is approximately 0.2 µg/mL. Besides, the IC50 in experiment [1] amounted to 0.72 µg/mL.

B7: SDP131 humanized anti-Cad-11 EC1 antibody (Vκ3/VH3) (antibody, IgG4, V domains shown)
VH: EVQLVQSGAEVKKPGASVKISCKASGYSFTGYFMNWVRQAPGQGLEWIGRINPYTGDTFYNQKFKGRATLTVDKSTSTAYMELSSLRSEDTAVYYCGRLGSRYWYFDVWGQGTTVTVSS
VL: DVVMTQTPLSSPVTLGQPASISCRSSQSIIHSNGNTYLEWYLQKPGQSPQLLIYKVSNRFSGVPDRFSGSGSGTDFTLKISRVEAEDVGVYYCFQGSHVPWTFGQGTKLEIK
notes: humanized IgG4 (S241P), kappa
For B7, in experiment [3], the “IC50 (read off the curve)” value was approximately 0.2 µg/mL. Moreover, the IC50 in experiment [1] was 0.55 µg/mL.

B8: SDP111 humanized anti-Cad-11 EC1 antibody (Vκ3/VH1) (antibody, IgG4, V domains shown)
VH: EVQLVQSGPELKKPGASVKISCKASGYSFTGYFMNWVKQAHGQGLEWIGRINPYTGDTFYNQKFKGRATLTVDKSSSTAYMELVSLSSEDSAVYYCGRLGSRYWYFDVWGQGTTVTVSS
VL: DVVMTQTPLSSPVTLGQPASISCRSSQSIIHSNGNTYLEWYLQKPGQSPQLLIYKVSNRFSGVPDRFSGSGSGTDFTLKISRVEAEDVGVYYCFQGSHVPWTFGQGTKLEIK
notes: humanized IgG4 (S241P), kappa
Regarding B8, in experiment [3], the “IC50 (read off the curve)” value is approximately 0.2 µg/mL. Besides, the IC50 in experiment [1] stood at 0.68 µg/mL.

B9: SDP021 humanized anti-Cad-11 EC1 antibody (Vκ1/VH2) (antibody, IgG4, V domains shown)
VH: EVQLVQSGAEVKKPGASVKISCKASGYSFTGYFMNWVKQAPGQGLEWIGRINPYTGDTFYNQKFKGRATLTVDKSTSTAYMELSSLRSEDTAVYYCGRLGSRYWYFDVWGQGTTVTVSS
VL: DVLMTQTPLSSPVTLGQPASISCRSSQSIIHSNGNTYLEWYLQKPGQSPQLLIYKVSNRFSGVPDRFTGSGSGTDFTLKISRVEAEDVGVYYCFQGSHVPWTFGQGTKLEIK
notes: humanized IgG4 (S241P), kappa
In the case of B9, the “IC50 (read off the curve)” value in experiment [2] was approximately 0.1 µg/mL. Besides, the IC50 in experiment [1] is 0.67 µg/mL.

B10: SDP121 humanized anti-Cad-11 EC1 antibody (Vκ3/VH2) (antibody, IgG4, V domains shown)
VH: EVQLVQSGAEVKKPGASVKISCKASGYSFTGYFMNWVKQAPGQGLEWIGRINPYTGDTFYNQKFKGRATLTVDKSTSTAYMELSSLRSEDTAVYYCGRLGSRYWYFDVWGQGTTVTVSS
VL: DVVMTQTPLSSPVTLGQPASISCRSSQSIIHSNGNTYLEWYLQKPGQSPQLLIYKVSNRFSGVPDRFSGSGSGTDFTLKISRVEAEDVGVYYCFQGSHVPWTFGQGTKLEIK
notes: humanized IgG4 (S241P), kappa
Regarding B10, in experiment [3], the “IC50 (read off the curve)” value is approximately 0.2 µg/mL. The IC50 in experiment [1] was found to be 0.52 µg/mL.

B11: SDP101 humanized anti-Cad-11 EC1 antibody (Vκ2/VH5) (antibody, IgG4, V domains shown)
VH: EVQLVQSGAEVKKPGASVKVSCKASGYSFTGYFMNWVRQAPGQGLEWIGRINPYTGDTFYNQKFKGRVTITVDKSTSTAYMELSSLRSEDTAVYYCGRLGSRYWYFDVWGQGTTVTVSS
VL: DVLMTQTPLSSPVTLGQPASISCRSSQSIIHSNGNTYLEWYLQKPGQSPQLLIYKVSNRFSGVPDRFSGSGSGTDFTLKISRVEAEDVGVYYCFQGSHVPWTFGQGTKLEIK
notes: humanized IgG4 (S241P), kappa
Take B11: the IC50 in experiment [1] stood at 0.53 µg/mL.

B12: SDP141 humanized anti-Cad-11 EC1 antibody (Vκ3/VH4) (antibody, IgG4, V domains shown)
VH: EVQLVQSGAEVKKPGASVKVSCKASGYSFTGYFMNWVRQAPGQGLEWIGRINPYTGDTFYNQKFKGRATITVDKSTSTAYMELSSLRSEDTAVYYCGRLGSRYWYFDVWGQGTTVTVSS
VL: DVVMTQTPLSSPVTLGQPASISCRSSQSIIHSNGNTYLEWYLQKPGQSPQLLIYKVSNRFSGVPDRFSGSGSGTDFTLKISRVEAEDVGVYYCFQGSHVPWTFGQGTKLEIK
notes: humanized IgG4 (S241P), kappa
Take B12: the “IC50 (read off the curve)” value in experiment [3] is approximately 0.2 µg/mL. The IC50 in experiment [1] turned out to be 0.61 µg/mL.
